Target: E2-E1 heterodimer of WT Sindbis virus (strain TE12) (Sindbis virus) (UniProt P03316)
Test: cryo-EM structure

**Q.** Which stoichiometry N does the source give for “E2-E1 heterodimer of WT Sindbis virus (strain TE12) (from UniProt P03316 807-1245) (complex)” here?
**A.** The stoichiometry N was 3.
